Measured values reported in US20240399042A1.

Target: SARS-CoV-2 (2019-nCoV) Spike S1-His Recombinant Protein (HPLC-verified), Sino Biological Catalog Number 40591-V08H (SARS-CoV-2) (UniProt P0DTC2)

Substance: Galanthus nivalis agglutinin (GNA) (from UniProt P30617 24-128)
- percent of S1 depleted at 15 minutes: > 90%
